Test results as given in the supplement of paper PMC12764529.
± gives the half width of the 95% confidence interval.

Tests used:
[1] = folding stability dG unfold (combined trypsin and chymotrypsin); higher = more stable
Outline: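 Digests were run with trypsin and chymotrypsin at 11 concentrations in threefold dilutions, plus a no-protease condition, on designed mini-proteins in a PA-tagged cDNA display construct. The mini-proteins were under 80 residues, had no cysteine, and were kept only when AlphaFold2 dimer inter-PAE was above 15. After sequencing, Bayesian fitting of the counts gave K50, from which unfolding free energy was derived against a sequence-predicted unfolded-state K50 and a shared folded-state K50, per protease or combined.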

[2] = folding stability dG unfold from chymotrypsin proteolysis; higher = more stable
Procedure: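 Folding stability of de novo designed mini-proteins (<80 aa, no Cys; designed by TrROS, TrMRF, ProteinMPNN and the joint model) was measured by cDNA display proteolysis with trypsin and chymotrypsin. Each protease was used at 11 concentrations in a threefold dilution series plus a no-protease condition. K50 was inferred by Bayesian fitting of sequencing counts, and dG unfold was derived against a sequence-predicted unfolded-state K50 (Tsuboyama et al. method). Sequences shown include variable-length N-terminal GS-type padding (SAGGSAGG...) inside a display construct carrying a PA tag. Rows were kept only if the AF2 dimer inter-PAE was >15, to exclude likely homo-oligomers.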

| Sequence | folding stability dG unfold [1] [kcal/mol] | folding stability dG unfold [2] [kcal/mol] |
| --- | --- | --- |
| SAGGSAGGSAGNADQIKEIARKYAPKNGMKPKDVDIEVEERENPNGKKELHIDVEGEYKNSAGGSAGGSAGG [r11_414_TrROS] | < -1 | 0.00121 ± 0.46 |
| SAGGSAGGSAGPMWRIEVENPNGRTPEIWIPPNMDTPEELVDELKKHFPGLKKVKIEPYPSAGGSAGGSAGG [r11_311_TrROS] | -0.391 ± 0.27 | 0.184 ± 0.12 |
| SAGGSAGGSAGPPGEPVRIKLKFPNGNPIEIPGKLDDAEEIAEELQSEGFPFSKVEVEKWSAGGSAGGSAGG [r11_946_TrROS] | -0.603 ± 0.51 | -0.257 ± 0.49 |
| SAGGSAGGSAGPWVPIAPGPNGMWIWAEPDPDKFTIRMFPMSPDGKIPDVQEHEIPPEDFSAGGSAGGSAGG [r11_88_TrROS] | -0.216 ± 0.17 | 0.156 ± 0.22 |
| SAGGSAGGSAGSMTVTSKYTLPGSSDVPVEVEVYSEAPVAVLTKPGAKTVLPLEALKALLSAGGSAGGSAGG [r11_370_JUSTAS] | -0.0987 ± 0.084 | 0.346 ± 0.14 |
| SAGGSAGGSAGSNVVYLGEEVITEVDPYSDKPYTVKVKVYLEPTPEGEKIIEEVLEKELLSAGGSAGGSAGG [r11_113_JUSTAS] | -0.94 ± 0.33 | -0.719 ± 0.29 |
| SAGGSAGGSAGYPPVPPAVVQAVVDELPRLGYTPKAVVVGEGPDLPFVLVVADDKVLLVRGSAGGSAGGSAG [r3_395_TrMRF] | -0.379 ± 0.14 | 0.524 ± 0.096 |
| SAGGSAGGSAIPPDAPVEVPVRVRVGGEEFDVTATLTARPDGSVGVDVDVDVPADEAEIEPASAGGSAGGSA [r18_428_TrMRF] | < -1 | 0.118 ± 0.32 |
| SAGGSAGGSAKAKVLEVEEKPVGGVNRFKIEVPLENGEPQKFYVLVEVPEDGDEKFAVKPGSAGGSAGGSAG [r3_94_TrMRF] | -0.319 ± 0.18 | 0.1 ± 0.16 |
| SAGGSAGGSAKKLKIPNPDGKTYEMKVEDVDPENNNVMIRNPGNGEPFHFKKSDAKRIAEELSAGGSAGGSA [r18_161_TrROS] | < -1 | -0.626 ± 0.44 |
| SAGGSAGGSAMIETSVSLDPKNGLRKVTQNVTPEEYLKLTGGPPIPKENKTTVTLTKTLPVPSAGGSAGGSA [r18_327_JUSTAS] | -0.726 ± 0.16 | -0.265 ± 0.087 |
| SAGGSAGGSAMKLTKEYVFTKTITLKNGKTKTESEVLTEEVPPIPLEELIKRLGLPPEELISAGGSAGGSAG [r3_338_JUSTAS] | -0.186 ± 0.32 | -0.126 ± 0.44 |
| SAGGSAGGSAMPIPKVLVLKDEGTLEEAREAALKYVKEDEKVIVKIGDKEIVIPAEELKKKSAGGSAGGSAG [r3_50_TrMRF] | < -1 | -0.237 ± 0.5 |
| SAGGSAGGSAMTVYVPIEEVGPDENGEYDDELIRERVREEYPDEPVEEVLVEGPEEAERVARSAGGSAGGSA [r18_72_JUSTAS] | -0.384 ± 0.23 | -0.134 ± 0.061 |
| SAGGSAGGSAMVTVTILSEDTTDSPRTYTVLFPAEGKALPLPFPADASEAEVRARALELLASAGGSAGGSAG [r3_142_JUSTAS] | < -1 | 0.673 ± 0.15 |
| SAGGSAGGSANQVKVEIEIPRMKMERDPDGGYQMEMRPVKIEIEAPMPEEQADDIAKDLIKSAGGSAGGSAG [r3_487_TrROS] | 0.0639 ± 0.16 | 0.579 ± 0.045 |
| SAGGSAGGSAPEPVVAKLVEVVTLPDGTPVLLFVVDHPDGPPELRLSTDALIEGDDLVDPSSAGGSAGGSAG [r3_261_TrMRF] | -0.0131 ± 0.2 | 0.404 ± 0.078 |
| SAGGSAGGSAREELVRRAAEEGLPGVRVLAIPPGNREVPAIVEGDKVYSYDLPDDAEVVVASAGGSAGGSAG [r3_244_TrMRF] | -0.0679 ± 0.086 | 0.408 ± 0.08 |
| SAGGSAGGSARIRFPNGYEIEVPRKRNPDGNLEITIESRNPDNPEHREMAKKIARDIADELSAGGSAGGSAG [r3_163_TrROS] | -0.526 ± 0.17 | -0.0805 ± 0.06 |
| SAGGSAGGSARTVPPDLLVRVETPDEERIVPVSELDAFFARHPDVPWRDITVVDPATGAARSAGGSAGGSAG [r3_134_JUSTAS] | -0.675 ± 0.37 | 0.539 ± 0.11 |
| SAGGSAGGSASEEEKPPKIKRVTINIPEEELRERFPGNPEWAENIAREAAKEGFDEVEIDINSAGGSAGGSA [r18_441_TrROS] | 0.521 ± 0.17 | 0.942 ± 0.12 |

| Sequence | folding stability dG unfold [1] [kcal/mol] | folding stability dG unfold [2] [kcal/mol] |
| --- | --- | --- |
| SAGGSAGGSASLSLDQVGTVTFPANGAPALVTRLPDGSVALYFPATGRVLYLDGPNDVTPDSAGGSAGGSAG [r3_96_TrMRF] | 0.552 ± 0.075 | 0.97 ± 0.059 |
| SAGGSAGGSASYSVTISPEERIEPVVDYKTGERRLVERRRVVVTADPKLSPALKAAILAALSSAGGSAGGSA [r18_438_JUSTAS] | -0.237 ± 0.2 | 0.144 ± 0.2 |
| SAGGSAGGSAWRTIEITWPPSNPEEFIDEISKDFGFTVEGEREPNGYHTIDFQLPPGMKIVSAGGSAGGSAG [r3_457_TrROS] | -0.224 ± 0.2 | -0.137 ± 0.23 |
| SAGGSAGGSDDAVTFTFTSAPTRLLYLDNPKTFPGSATVTLPAGNPDEFRIERFAPDTAELKPSAGGSAGGS [r20_150_TrMRF] | < -1 | -0.427 ± 0.62 |
| SAGGSAGGSEEIYIKVTVEHPNGEKRTHEIERIRDKDGLPIKQIAKELAQEPNVRDVDVEIVKSAGGSAGGS [r12_199_TrROS] | -0.56 ± 0.15 | -0.316 ± 0.072 |
| SAGGSAGGSEEVVRTETSTSTTPDGKRVKTTTTTLPTPTTVTTTTVYAPGGEVLETTTTTTAASAGGSAGGS [r12_727_JUSTAS] | < -1 | -0.123 ± 0.2 |
| SAGGSAGGSELPPGPYLVTIPADPEPVVAPATFAPDGTVRVRVPEPGEEITIPRDQAEIFPVESAGGSAGGS [r12_782_JUSTAS] | -0.0148 ± 0.28 | 0.944 ± 0.058 |
| SAGGSAGGSGEYVVVLLREELPDEERYLRRPVPLDAALEALKEGKLVRSSEGREWRFAEYRPESAGGSAGGS [r12_432_TrMRF] | -0.218 ± 0.28 | -0.0188 ± 0.33 |
| SAGGSAGGSGMERVEAVREALVPGDPDAVPAPITYDPQTGKLTYSVSDPRVAAALAADPLVSLSAGGSAGGS [r12_623_JUSTAS] | -0.309 ± 0.19 | 0.333 ± 0.11 |
| SAGGSAGGSGMNVKTIKIYSPEGGETTVPVTGTTVTIGGETVTVTSDVVVPVPPTIKSIEVVGSAGGSAGGS [r12_779_JUSTAS] | 0.277 ± 0.082 | 0.769 ± 0.02 |
| SAGGSAGGSGPALANIPPDAKVTVTPLPDDSYLVDIYYPNGPVEYLDVPVGDKWVKFEVEPEKSAGGSAGGS [r20_50_TrMRF] | < -1 | -0.749 ± 0.24 |
| SAGGSAGGSKKIVLVLKVKKEKAKEKVEKAKKELEKALPKDYKIKSIEVKYDPETDKVIIVADSAGGSAGGS [r12_308_TrMRF] | -0.0532 ± 0.28 | 0.376 ± 0.49 |
| SAGGSAGGSKKWIPIDSPSEIEDLLEKAPPGGKLKIYNNNGQTEKVPPNEIERTPNHWWIEVDSAGGSAGGS [r12_907_TrROS] | -0.463 ± 0.45 | 0.314 ± 0.17 |
| SAGGSAGGSKWKISVHPPNGNSWKIDPGDTIKELVDQMSKENGWPYHIHVSKEEAEKLGLKPVSAGGSAGGS [r12_379_TrROS] | -0.0115 ± 0.16 | 0.356 ± 0.13 |
| SAGGSAGGSLRPDEEVVAILPNGEKVPFKVESVEVSPDGSVKANLTLPGGKSLGPANLVFKPESAGGSAGGS [r12_735_TrMRF] | -0.629 ± 0.22 | -0.00357 ± 0.078 |
| SAGGSAGGSMKEGTFNSEEEVEELKKKYPNVEVYEDPETNTIHVKIKEESEKEYEEENIKKLKSAGGSAGGS [r20_191_JUSTAS] | < -1 | -0.897 ± 0.6 |
| SAGGSAGGSMLRVEVTLENGEKIEVEIEVPPGEELTLDEILAELKEKYPDLKVTEIKIEFLEPSAGGSAGGS [r12_262_TrROS_Hall] | 3.27 ± 0.28 | 2.63 ± 0.22 |
| SAGGSAGGSMTITIKLDNVKEVEVKFNPETNVVEIKVKVDGKEYVIRMEFVDGKIYITEIKPLSAGGSAGGS [r20_60_TrROS_Hall] | 4.06 ± 0.28 | 3.68 ± 0.34 |
| SAGGSAGGSMTIVNPGTPETLAATVKETIKAGKKVKVIYVSPDNPEPVAEAEVEGTAEELEKESAGGSAGGS [r12_241_TrMRF] | -0.49 ± 0.29 | 0.193 ± 0.11 |
| SAGGSAGGSMTVDTTYDPSTDRVTLTVTIPAPDGSELVRTVQSTGDPEAAAAAAAAAVAAAAASAGGSAGGS [r20_33_JUSTAS] | < -1 | -0.252 ± 0.14 |
| SAGGSAGGSPAEITREEAVELAYETLPATEPAVFVFADPRLLVVYPDGADPSRNRVVEVPLLDSAGGSAGGS [r12_648_TrMRF] | -0.741 ± 0.22 | -0.339 ± 0.17 |
